How the values were obtained:
[1] = substrate: CO/N=C(\C(=O)N[C@@H]1C(=O)N2C(C(=O)O)=C(COC(C)=O)CS[C@H]12)c1csc(N)n1; assay: (§1) Ratio of Kcat to Km for Chryseobacterium indologenes 597 metallo-beta-lactamase […] expressed in Escherichia coli DH5alpha by Michaelis-Menten equation
[2] = substrate: C[C@@H](O)[C@H]1C(=O)N2C(C(=O)O)=C(S[C@@H]3CN[C@H](C(=O)N(C)C)C3)[C@H](C)[C@H]12; assay: as §1
[3] = substrate: CC1(C)S[C@@H]2[C@H](NC(=O)C(C(=O)O)c3ccccc3)C(=O)N2[C@H]1C(=O)O; assay: as §1
[4] = substrate: C[C@@H](O)[C@H]1C(=O)N2C(C(=O)O)=C(SCCNC=N)C[C@H]12; assay: as §1
[5] = substrate: CC1(C)S[C@@H]2[C@H](NC(=O)Cc3ccccc3)C(=O)N2[C@H]1C(=O)O; assay: as §1
[6] = substrate: CO/N=C(\C(=O)N[C@@H]1C(=O)N2C(C(=O)O)=C(COC(C)=O)CS[C@H]12)c1csc(N)n1; assay: (§2) Ratio of Kcat to Km for Chryseobacterium indologenes 597 metallo-beta-lactamase IND-2 expressed in Escherichia coli DH5alpha by Michaelis-Menten equation
[7] = substrate: C[C@@H](O)[C@H]1C(=O)N2C(C(=O)O)=C(S[C@@H]3CN[C@H](C(=O)N(C)C)C3)[C@H](C)[C@H]12; assay: as §2
[8] = substrate: CC(=O)OCC1=C(C(=O)O)N2C(=O)[C@@H](NC(=O)Cc3cccs3)[C@H]2SC1; assay: as §2
[9] = substrate: CO/N=C(\C(=O)N[C@@H]1C(=O)N2C(C(=O)[O-])=C(C[N+]3(C)CCCC3)CS[C@H]12)c1csc(N)n1; assay: as §2
[10] = substrate: CC(C)(O/N=C(\C(=O)N[C@@H]1C(=O)N2C(C(=O)[O-])=C(C[n+]3ccccc3)CS[C@H]12)c1csc(N)n1)C(=O)O; assay: as §2
[11] = substrate: C[C@@H](O)[C@H]1C(=O)N2C(C(=O)O)=C(SCCNC=N)C[C@H]12; assay: as §2
[12] = substrate: CC1(C)S[C@@H]2[C@H](NC(=O)Cc3ccccc3)C(=O)N2[C@H]1C(=O)O; assay: as §2
[13] = substrate: CO/N=C(\C(=O)N[C@@H]1C(=O)N2C(C(=O)O)=C(COC(C)=O)CS[C@H]12)c1csc(N)n1; assay: (§3) Ratio of Kcat to Km for Chryseobacterium indologenes 597 metallo-beta-lactamase IND-6 expressed in Escherichia coli DH5alpha by Michaelis-Menten equation
[14] = substrate: O=C(Cc1cccs1)N[C@@H]1C(=O)N2C(C(=O)O)=C(/C=C/c3ccc([N+](=O)[O-])cc3[N+](=O)[O-])CS[C@H]12; assay: as §3
[15] = substrate: C[C@@H](O)[C@H]1C(=O)N2C(C(=O)O)=C(S[C@@H]3CN[C@H](C(=O)N(C)C)C3)[C@H](C)[C@H]12; assay: as §3
[16] = substrate: CC1(C)S[C@@H]2[C@H](NC(=O)C(C(=O)O)c3ccccc3)C(=O)N2[C@H]1C(=O)O; assay: as §3
[17] = substrate: CC1(C)S[C@@H]2[C@H](NC(=O)[C@H](N)c3ccc(O)cc3)C(=O)N2[C@H]1C(=O)O; assay: as §3
[18] = substrate: CC1=C(C(=O)O)N2C(=O)[C@@H](NC(=O)[C@H](N)c3ccccc3)[C@H]2SC1; assay: as §3
[19] = substrate: CC(=O)OCC1=C(C(=O)O)N2C(=O)[C@@H](NC(=O)Cc3cccs3)[C@H]2SC1; assay: as §3
[20] = substrate: CO/N=C(\C(=O)N[C@@H]1C(=O)N2C(C(=O)O)=C(COC(N)=O)CS[C@H]12)c1ccco1; assay: as §3
[21] = substrate: CO/N=C(\C(=O)N[C@@H]1C(=O)N2C(C(=O)[O-])=C(C[N+]3(C)CCCC3)CS[C@H]12)c1csc(N)n1; assay: as §3
[22] = substrate: CC(C)(O/N=C(\C(=O)N[C@@H]1C(=O)N2C(C(=O)[O-])=C(C[n+]3ccccc3)CS[C@H]12)c1csc(N)n1)C(=O)O; assay: as §3
[23] = substrate: C[C@@H](O)[C@H]1C(=O)N2C(C(=O)O)=C(SCCNC=N)C[C@H]12; assay: as §3
[24] = substrate: O=C(Cc1cccs1)N[C@@H]1C(=O)N2C(C(=O)[O-])=C(C[n+]3ccccc3)CS[C@H]12; assay: as §3
[25] = substrate: CC1(C)S[C@@H]2[C@H](NC(=O)Cc3ccccc3)C(=O)N2[C@H]1C(=O)O; assay: as §3
[26] = substrate: CO/N=C(\C(=O)N[C@@H]1C(=O)N2C(C(=O)O)=C(COC(C)=O)CS[C@H]12)c1csc(N)n1; assay: (§4) Activity at Chryseobacterium indologenes 597 metallo-beta-lactamase IND-6 expressed in Escherichia coli DH5alpha by Michaelis-Menten equation
[27] = substrate: O=C(Cc1cccs1)N[C@@H]1C(=O)N2C(C(=O)O)=C(/C=C/c3ccc([N+](=O)[O-])cc3[N+](=O)[O-])CS[C@H]12; assay: as §4
[28] = substrate: C[C@@H](O)[C@H]1C(=O)N2C(C(=O)O)=C(S[C@@H]3CN[C@H](C(=O)N(C)C)C3)[C@H](C)[C@H]12; assay: as §4
[29] = substrate: CC1(C)S[C@@H]2[C@H](NC(=O)C(C(=O)O)c3ccccc3)C(=O)N2[C@H]1C(=O)O; assay: as §4
[30] = substrate: CC1(C)S[C@@H]2[C@H](NC(=O)[C@H](N)c3ccc(O)cc3)C(=O)N2[C@H]1C(=O)O; assay: as §4
[31] = substrate: CC1=C(C(=O)O)N2C(=O)[C@@H](NC(=O)[C@H](N)c3ccccc3)[C@H]2SC1; assay: as §4
[32] = substrate: CC(=O)OCC1=C(C(=O)O)N2C(=O)[C@@H](NC(=O)Cc3cccs3)[C@H]2SC1; assay: as §4
[33] = substrate: CO/N=C(\C(=O)N[C@@H]1C(=O)N2C(C(=O)O)=C(COC(N)=O)CS[C@H]12)c1ccco1; assay: as §4
[34] = substrate: CO/N=C(\C(=O)N[C@@H]1C(=O)N2C(C(=O)[O-])=C(C[N+]3(C)CCCC3)CS[C@H]12)c1csc(N)n1; assay: as §4
[35] = substrate: CC(C)(O/N=C(\C(=O)N[C@@H]1C(=O)N2C(C(=O)[O-])=C(C[n+]3ccccc3)CS[C@H]12)c1csc(N)n1)C(=O)O; assay: as §4
[36] = substrate: C[C@@H](O)[C@H]1C(=O)N2C(C(=O)O)=C(SCCNC=N)C[C@H]12; assay: as §4
[37] = substrate: O=C(Cc1cccs1)N[C@@H]1C(=O)N2C(C(=O)[O-])=C(C[n+]3ccccc3)CS[C@H]12; assay: as §4
[38] = substrate: CC1(C)S[C@@H]2[C@H](NC(=O)Cc3ccccc3)C(=O)N2[C@H]1C(=O)O; assay: as §4
[39] = substrate: CO/N=C(\C(=O)N[C@@H]1C(=O)N2C(C(=O)O)=C(COC(C)=O)CS[C@H]12)c1csc(N)n1; assay: (§5) Ratio of Kcat to Km for Chryseobacterium meningosepticum CCUG 4310 beta-lactamase BlaB1 expressed in Escherichia coli DH5alpha by Michaelis-Menten equation; conditions: Elizabethkingia meningoseptica
[40] = substrate: O=C(Cc1cccs1)N[C@@H]1C(=O)N2C(C(=O)O)=C(/C=C/c3ccc([N+](=O)[O-])cc3[N+](=O)[O-])CS[C@H]12; assay: as §5; conditions: Elizabethkingia meningoseptica
[41] = substrate: C[C@@H](O)[C@H]1C(=O)N2C(C(=O)O)=C(S[C@@H]3CN[C@H](C(=O)N(C)C)C3)[C@H](C)[C@H]12; assay: as §5; conditions: Elizabethkingia meningoseptica
[42] = substrate: CC1(C)S[C@@H]2[C@H](NC(=O)C(C(=O)O)c3ccccc3)C(=O)N2[C@H]1C(=O)O; assay: as §5; conditions: Elizabethkingia meningoseptica
[43] = substrate: CC(=O)OCC1=C(C(=O)O)N2C(=O)[C@@H](NC(=O)Cc3cccs3)[C@H]2SC1; assay: as §5; conditions: Elizabethkingia meningoseptica
[44] = substrate: CO/N=C(\C(=O)N[C@@H]1C(=O)N2C(C(=O)O)=C(COC(N)=O)CS[C@H]12)c1ccco1; assay: as §5; conditions: Elizabethkingia meningoseptica
[45] = substrate: CO/N=C(\C(=O)N[C@@H]1C(=O)N2C(C(=O)[O-])=C(C[N+]3(C)CCCC3)CS[C@H]12)c1csc(N)n1; assay: as §5; conditions: Elizabethkingia meningoseptica
[46] = substrate: CC(C)(O/N=C(\C(=O)N[C@@H]1C(=O)N2C(C(=O)[O-])=C(C[n+]3ccccc3)CS[C@H]12)c1csc(N)n1)C(=O)O; assay: as §5; conditions: Elizabethkingia meningoseptica
[47] = substrate: C[C@@H](O)[C@H]1C(=O)N2C(C(=O)O)=C(SCCNC=N)C[C@H]12; assay: as §5; conditions: Elizabethkingia meningoseptica
[48] = substrate: O=C(Cc1cccs1)N[C@@H]1C(=O)N2C(C(=O)[O-])=C(C[n+]3ccccc3)CS[C@H]12; assay: as §5; conditions: Elizabethkingia meningoseptica
[49] = substrate: CC1(C)S[C@@H]2[C@H](NC(=O)Cc3ccccc3)C(=O)N2[C@H]1C(=O)O; assay: as §5; conditions: Elizabethkingia meningoseptica

B1: IND-like metallo-beta-lactamase (Chryseobacterium indologenes), Q6JE29 (protein)
chain: MKKRIQFFMVSMMLAPMFNAQVKDFVIEPPIKNNLHIYKTFGVFGGKEYSANSVYLVTKKGVVLFDVPWEKAQYQSLMDTIKKRHNLPVIAVFATHSHDDRAGDLSFFNNKGIKTYATSKTNEFLKKDGKATSTEIIKTGKPYRIGGEEFTVDFLGEGHTADNVVVWFPKYNVLDGGCLVKSNSATDLGYIKEANVEQWPITIDKLKAKYSKATLIIPGHDDWKGGGHVEHTLELLNKK
kcat/Km [1]: 3.1 ×10⁴ /M/s
kcat/Km [2]: 1.5 ×10⁴ /M/s
kcat/Km [3]: 5.3 ×10⁴ /M/s
kcat/Km [4]: 2.4 ×10⁴ /M/s
kcat/Km [5]: 8.4 ×10⁵ /M/s

B2: Metallo-beta-lactamase IND-2 (Chryseobacterium indologenes), Q9F923 (protein)
chain: MKKSIQLLMMSMFLSPLINAQVKDFVIEPPVKPNLYLYKSFGVFGGKEYSANAVYLTTKKGVVLFDVPWQKEQYQTLMDTIQKRHHLPVIAVFATHSHDDRAGDLSFYNQKGIKTYATAKTNELLKKDGKATSTEIIKTGKPYKIGGEEFMVDFLGEGHTVDNVVVWFPKYKVLDGGCLVKSRTATDLGYTGEANVKQWPETMRKLKTKYAQATLVIPGHDEWKGGGHVQHTLDLLDKN
kcat/Km [6]: 9 ×10⁵ /M/s
kcat/Km [7]: 1.8 ×10⁵ /M/s
kcat/Km [8]: 1.2 ×10⁶ /M/s
kcat/Km [9]: 4.5 ×10² /M/s
kcat/Km [10]: 4.5 ×10³ /M/s
kcat/Km [11]: 5.9 ×10⁵ /M/s
kcat/Km [12]: 4.6 ×10⁶ /M/s

B3: Metallo-beta-lactamase IND-6 (Chryseobacterium indologenes), Q08I33 (protein)
chain: MKRRIQFFMVSMMLTPLFSAQVKDFVIEPPIKKNLYIYKTFGVFGGKEYSANSVYLVTKTGVVLFDVPWEKAQYQSLMDTIKKRHNLPVVAVFATHSHDDRAGDLSFFNNKGIKTYATPKTNQFLKRDGKATSTELIKPGKPYRFGGEEFVVDFLGEGHTADNVVVWFPKYKVLDGGCLVKSNSATDLGYIKEANLEQWPKTMHKLKTKYSEAVLIIPGHDEWKGGGHVEHTLELLDKK
kcat/Km [13]: 2.4 ×10⁵ /M/s
kcat/Km [14]: 2.7 ×10⁶ /M/s
kcat/Km [15]: 1.7 ×10⁵ /M/s
kcat/Km [16]: 7 ×10⁶ /M/s
kcat/Km [17]: 5.6 ×10⁶ /M/s
kcat/Km [18]: 6.3 ×10⁶ /M/s
kcat/Km [19]: 6.9 ×10⁶ /M/s
kcat/Km [20]: 3.3 ×10⁶ /M/s
kcat/Km [21]: 4 ×10³ /M/s
kcat/Km [22]: 2.7 ×10⁵ /M/s
kcat/Km [23]: 3.8 ×10⁶ /M/s
kcat/Km [24]: 5.4 ×10⁶ /M/s
kcat/Km [25]: 1.5 ×10⁷ /M/s
Km [26]: 33 µM
kcat [26]: 8 s⁻¹
Km [27]: 43 µM
kcat [27]: 115 s⁻¹
Km [28]: 145 µM
kcat [28]: 25 s⁻¹
Km [29]: 30 µM
kcat [29]: 210 s⁻¹
Km [30]: 85 µM
kcat [30]: 480 s⁻¹
Km [31]: 3 µM
kcat [31]: 19 s⁻¹
Km [32]: 60 µM
kcat [32]: 415 s⁻¹
Km [33]: 23 µM
kcat [33]: 75 s⁻¹
Km [34]: > 300 µM
kcat [34]: > 1.2 s⁻¹
Km [35]: 22 µM
kcat [35]: 6 s⁻¹
Km [36]: 13 µM
kcat [36]: 50 s⁻¹
Km [37]: 90 µM
kcat [37]: 490 s⁻¹
Km [38]: 20 µM
kcat [38]: 305 s⁻¹

B4: Metallo-beta-lactamase type 2 (Flavobacterium meningosepticum), O08498 (protein)
chain: MLKKIKISLILALGLTSLQAFGQENPDVKIEKLKDNLYVYTTYNTFNGTKYAANAVYLVTDKGVVVIDCPWGEDKFKSFTDEIYKKHGKKVIMNIATHSHDDRAGGLEYFGKIGAKTYSTKMTDSILAKENKPRAQYTFDNNKSFKVGKSEFQVYYPGKGHTADNVVVWFPKEKVLVGGCIIKSADSKDLGYIGEAYVNDWTQSVHNIQQKFSGAQYVVAGHDDWKDQRSIQHTLDLINEYQQKQKASN
kcat/Km [39]: 7.9 ×10⁵ /M/s
kcat/Km [40]: 3.9 ×10⁶ /M/s
kcat/Km [41]: 7.6 ×10⁵ /M/s
kcat/Km [42]: 6.1 ×10⁶ /M/s
kcat/Km [43]: 1.6 ×10⁶ /M/s
kcat/Km [44]: 1 ×10⁶ /M/s
kcat/Km [45]: 2 ×10² /M/s
kcat/Km [46]: 6.6 ×10³ /M/s
kcat/Km [47]: 2 ×10⁶ /M/s
kcat/Km [48]: 1.4 ×10⁵ /M/s
kcat/Km [49]: 2.7 ×10⁷ /M/s
